The text below walks through data of patent publication US20230025707A1 (University of Pennsylvania, published 2023).

In experiment [1] the target is T1, human α-Synuclein pre-formed fibrils (human, UniProt P37840 1-140). The experiment is described as follows: cell-based or functional assay.
In experiment [2] the target is T1, human α-Synuclein pre-formed fibrils. The experiment is described as follows: sandwich ELISA; PFF vs monomer from EC50s, Syn211 as control.
Procedure: Fibrils were then sonicated on high for 10 cycles of 30 seconds on, 30 seconds off (Diagenode Biorupter UCD-300 bath sonicator) prior to dilutions. Dilutions were added to each well (30 μL per well) and incubated overnight at 4° C. The plate was washed 4 times with PBST. 30 μL of MJF-R1 (1:3,000, Abcam Cat #ab138501) in Buffer C was added to each well and the plate was incubated for 4 hours at 37° C. After washing with PBST 4 times, 1:10 k diluted goat-anti-rabbit IgG-HRP conjugate (Cell Signaling Technology) was added to the plate and the plate was incubated for 1 hour at 37° C.
This assay retains the conformation of α-Synuclein by allowing binding of α-Synuclein that is in solution to immobilized antibody, and allows a broad range of affinity detection. Antibodies of interest were coated on an ELISA plate and either α-Synuclein monomer or PFF were incubated with the antibodies at increasing α-Synuclein concentrations to determine relative affinity of the antibodies for each form of α-Synuclein.
By fitting the absorbance values with a sigmoid dose curve, EC₅₀ values were calculated for each antibody.
The target of the next experiment is Lewy body α-Synuclein (human, UniProt P37840 1-140). The experiment is described as follows: IHC, human amygdala; OD of Lewy bodies / OD of tissue.

Source text for Lewy body α-Synuclein: FIG. 2A: Sections of amygdala tissue containing abundant Lewy body pathology were stained using undiluted or 1:3 diluted hybridoma supernatant. […] FIG. 2B: The optical density within Lewy bodies divided by the optical density of a 1 mm² tissue section containing those Lewy bodies was defined as the Lewy Body Discrimination Index. Antibodies preferentially recognizing Lewy bodies score high on this measure.
In order to rapidly screen for antibody selectivity to pathological α-Synuclein, amygdala sections from PD patients with abundant LB pathology were immunostained. Hybridoma supernatants were used undiluted or at a 1:3 dilution on screening slides processed in parallel to allow direct comparison of immunostaining. […] A value of 1 indicates no discrimination of LBs over normal synaptic neuropil staining.

B1: 9110 (antibody, IgG1, V domains shown)
VH: EVHLVESGGGLVQPKGSLKLSCAASGFTFNTYAMHWVRQAPGKGLEWVARIRNKSNNYATYYADSVKDRFTISRDDSQSMLFLQMDNLKTEDTAIYYCVRGGLSPFDYWGQGTTLTVSS
VL: QIVLTQSPAIMSASPGEKVTMTCSASSSVTYMHWYQQKSGTSPKRWIYDTSKLASGVPARFSGSGSGTSYSLTISSMEAEDAATYYCQQWSSNPPTFGGGTKLEIR
Regarding B1, in experiment [1], the “% Inhibition (primary neuron assay)” value stood at 81.6%. Moreover, the “PFF Preference” value in experiment [2] is 0.533. In the experiment with Lewy body α-Synuclein, the “LB Discrimination Index” value is 1.73.
